Assay results from article PMC10281000 (Chembiochem : a European journal of chemical biology, 2021).

B1: PA0810, L-2-haloacid dehalogenase from Pseudomonas aeruginosa PAO1 (enzyme)
chain: MRAILFDVFGTLVDWRSSLIEQFQALERELGGTLPCVELTDRWRQQYKPAMDRVRNGQAPWQHLDQLHRQSLEALAGEFGLALDEALLQRITGFWHRLRPWPDTLAGMHALKADYWLAALSNGNTALMLDVARHAGLPWDMLLCADLFGHYKPDPQVYLGACRLLDLPPQEVMLCAAHNYDLKAARALGLKTAFIARPLEYGPGQSQDLAAEQDWDLIASDLLDLHRQLAASA

Legend:
O=C(O)CCl = test: purified protein; settings: pH 8.5; 30.0 °C
Rha0230 = Rha0230 (Rhodococcus jostii, UniProt Q0SK70); settings: 100 mM Tris-SO4, pH 8.5, 30 °C; defluorination
ST2570 = ST2570 (Sulfurisphaera tokodaii, UniProt Q96XE7); settings: 100 mM Tris-SO4, pH 8.5, 30 °C; defluorination
Bpro0530 = settings: 100 mM Tris-SO4, pH 8.5, 30 °C; defluorination
crystal structure = biological target: the molecule itself; test: crystal structure

Row | Molecule | Km (O=C(O)CCl) | kcat/Km (O=C(O)CCl) | also measured
1 | ST2570 (Sulfurisphaera tokodaii str. 7) | 0.00353 ± 3e-05 mM | 73000 ± 1100 M⁻¹ s⁻¹ | 
2 | Rha0230 (Rhodococcus jostii RHA1; Y61F) | 14 ± 2 mM | 73 ± 13 M⁻¹ s⁻¹ | 
3 | Rha0230 (Rhodococcus jostii RHA1) | 18 ± 2 mM | 37 ± 6 M⁻¹ s⁻¹ | 
4 | O=C(O)CF [fluoroacetate] |  |  | Km (Rha0230): 18 ± 3 mM; Km (ST2570): 2.4 ± 0.7 mM; Km (Bpro0530): 20.3 ± 0.3 mM
5 | B1 |  |  | binding result (crystal structure): binds
